Experiment [1] concerns the target CD28 (human) (UniProt P10747). Briefly: cell-based or functional assay.
Experiment [2] concerns the target PD-L1 (human) (UniProt Q9NZQ7). In words: cell-based or functional assay.

PD-L1 (human), sequence (Q9NZQ7 19-290): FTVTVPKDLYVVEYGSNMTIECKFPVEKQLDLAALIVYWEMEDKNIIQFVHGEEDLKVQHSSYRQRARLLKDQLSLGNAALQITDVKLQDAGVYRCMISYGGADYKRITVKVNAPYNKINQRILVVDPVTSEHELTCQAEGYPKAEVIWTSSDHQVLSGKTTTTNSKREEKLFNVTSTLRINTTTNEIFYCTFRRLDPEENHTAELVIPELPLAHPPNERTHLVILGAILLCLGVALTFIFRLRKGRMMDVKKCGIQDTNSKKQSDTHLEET

Regarding “variant CD80 IgV-Fc (inert) E35D/M47L (Fc fusion)”, in experiment [1], the IL-2-luciferase RLU, Jurkat + CHO/OKT3/PD-L1 aAPC, 0.6 nM stood at 1040 RLU; the IL-2-luciferase RLU, Jurkat + CHO/OKT3/PD-L1 aAPC, 1.9 nM was found to be 1730 RLU; the IL-2-luciferase RLU, Jurkat + CHO/OKT3/PD-L1 aAPC, 5.6 nM amounted to 2580 RLU; the IL-2-luciferase RLU, Jurkat + CHO/OKT3/PD-L1 aAPC, 16.7 nM amounted to 3070 RLU. In experiment [1], the IL-2-luciferase RLU, Jurkat + CHO/OKT3 aAPC (no PD-L1), 5.6 nM was determined as 633 RLU; the IL-2-luciferase RLU, Jurkat + CHO/OKT3 aAPC (no PD-L1), 16.7 nM was 731 RLU; the IL-2-luciferase RLU, Jurkat + CHO/OKT3 aAPC (no PD-L1), 50 nM worked out at 817 RLU. In experiment [2], this substance gave an IL-2 release, primary T cells; K562/OKT3/PD-L1; 1 nM of 268; an IL-2 release, primary T cells; K562/OKT3/PD-L1; 10 nM of 2700; an IL-2 release, primary T cells; K562/OKT3/PD-L1; 100 nM of 7530.

As to “variant CD80 IgV-Fc (inert) A26E/E35D/M47L/L85Q (Fc fusion)”, in experiment [1], the IL-2-luciferase RLU, Jurkat + CHO/OKT3/PD-L1 aAPC, 0.6 nM was determined as 509 RLU; the IL-2-luciferase RLU, Jurkat + CHO/OKT3/PD-L1 aAPC, 1.9 nM amounted to 618 RLU; the IL-2-luciferase RLU, Jurkat + CHO/OKT3/PD-L1 aAPC, 5.6 nM amounted to 886 RLU; the IL-2-luciferase RLU, Jurkat + CHO/OKT3/PD-L1 aAPC, 16.7 nM came to 1380 RLU. Besides, in experiment [1], the IL-2-luciferase RLU, Jurkat + CHO/OKT3/PD-L1 aAPC, 50 nM came to 2000 RLU; the IL-2-luciferase RLU, Jurkat + CHO/OKT3 aAPC (no PD-L1), 5.6 nM turned out to be 458 RLU; the IL-2-luciferase RLU, Jurkat + CHO/OKT3 aAPC (no PD-L1), 16.7 nM was 415 RLU; the IL-2-luciferase RLU, Jurkat + CHO/OKT3 aAPC (no PD-L1), 50 nM is 432 RLU. In experiment [2], this substance displayed an IL-2 release, primary T cells; K562/OKT3/PD-L1; 1 nM of 72; an IL-2 release, primary T cells; K562/OKT3/PD-L1; 10 nM of 268; an IL-2 release, primary T cells; K562/OKT3/PD-L1; 100 nM of 1460.

In experiment [1], “variant CD80 IgV-Fc (effector) E35G/K54E/A71D/L72P (Fc fusion)” returned an IL-2 release, primary T cells; K562/OKT3 (No PD-L1); 1 nM of 7030; an IL-2 release, primary T cells; K562/OKT3 (No PD-L1); 10 nM of 7900; an RLU, Jurkat/IL2 reporter; K562/OKT3 aAPC, FcR Dependent Cross-Linking (No PD-L1); 0.6 nM of 1340 RLU; an RLU, Jurkat/IL2 reporter; K562/OKT3 aAPC, FcR Dependent Cross-Linking (No PD-L1); 1.9 nM of 1370 RLU. Besides, in experiment [1], the RLU, Jurkat/IL2 reporter; K562/OKT3 aAPC, FcR Dependent Cross-Linking (No PD-L1); 5.6 nM is 1380 RLU; the RLU, Jurkat/IL2 reporter; K562/OKT3 aAPC, FcR Dependent Cross-Linking (No PD-L1); 16.7 nM is 1430 RLU; the RLU, Jurkat/IL2 reporter; K562/OKT3 aAPC, FcR Dependent Cross-Linking (No PD-L1); 50 nM turned out to be 1510 RLU. Moreover, in experiment [2], the RLU, Jurkat/IL2 reporter; K562/OKT3/PD-L1 aAPC, Combination of FcR and/or PD-L1 Dependent Cross-Linking; 0.6 nM amounted to 689 RLU; the RLU, Jurkat/IL2 reporter; K562/OKT3/PD-L1 aAPC, Combination of FcR and/or PD-L1 Dependent Cross-Linking; 1.9 nM amounted to 732 RLU; the RLU, Jurkat/IL2 reporter; K562/OKT3/PD-L1 aAPC, Combination of FcR and/or PD-L1 Dependent Cross-Linking; 5.6 nM stood at 735 RLU; the RLU, Jurkat/IL2 reporter; K562/OKT3/PD-L1 aAPC, Combination of FcR and/or PD-L1 Dependent Cross-Linking; 16.7 nM stood at 701 RLU. Also, in experiment [2], the RLU, Jurkat/IL2 reporter; K562/OKT3/PD-L1 aAPC, Combination of FcR and/or PD-L1 Dependent Cross-Linking; 50 nM was 805 RLU.

In the case of “Fc only Control (inert Fc) (from UniProt P0DOX5 218-448)”, in experiment [1], the IL-2 release, primary T cells; K562/OKT3 (No PD-L1); 1 nM stood at 7040; the IL-2 release, primary T cells; K562/OKT3 (No PD-L1); 10 nM amounted to 6340; the IL-2 release, primary T cells; K562/OKT3 (No PD-L1); 100 nM amounted to 5510; the RLU, Jurkat/IL2 reporter; K562/OKT3 aAPC, FcR Dependent Cross-Linking (No PD-L1); 0.6 nM came to 1400 RLU. Also, in experiment [1], the RLU, Jurkat/IL2 reporter; K562/OKT3 aAPC, FcR Dependent Cross-Linking (No PD-L1); 1.9 nM is 1390 RLU; the RLU, Jurkat/IL2 reporter; K562/OKT3 aAPC, FcR Dependent Cross-Linking (No PD-L1); 5.6 nM is 1390 RLU; the RLU, Jurkat/IL2 reporter; K562/OKT3 aAPC, FcR Dependent Cross-Linking (No PD-L1); 16.7 nM is 1370 RLU; the RLU, Jurkat/IL2 reporter; K562/OKT3 aAPC, FcR Dependent Cross-Linking (No PD-L1); 50 nM came to 1370 RLU. Moreover, in experiment [2], the IL-2 release, primary T cells; K562/OKT3/PD-L1; 10 nM was determined as 143; the RLU, Jurkat/IL2 reporter; K562/OKT3/PD-L1 aAPC, Combination of FcR and/or PD-L1 Dependent Cross-Linking; 0.6 nM worked out at 689 RLU; the RLU, Jurkat/IL2 reporter; K562/OKT3/PD-L1 aAPC, Combination of FcR and/or PD-L1 Dependent Cross-Linking; 1.9 nM amounted to 675 RLU; the RLU, Jurkat/IL2 reporter; K562/OKT3/PD-L1 aAPC, Combination of FcR and/or PD-L1 Dependent Cross-Linking; 5.6 nM turned out to be 666 RLU. For the same substance, in experiment [2], the RLU, Jurkat/IL2 reporter; K562/OKT3/PD-L1 aAPC, Combination of FcR and/or PD-L1 Dependent Cross-Linking; 16.7 nM was 694 RLU and the RLU, Jurkat/IL2 reporter; K562/OKT3/PD-L1 aAPC, Combination of FcR and/or PD-L1 Dependent Cross-Linking; 50 nM came out at 679 RLU.

Turning to “variant CD80 IgV-Fc (inert) E35D/M47I (Fc fusion)”, in experiment [1], the IL-2-luciferase RLU, Jurkat + CHO/OKT3/PD-L1 aAPC, 0.6 nM is 1050 RLU; the IL-2-luciferase RLU, Jurkat + CHO/OKT3/PD-L1 aAPC, 1.9 nM is 1730 RLU; the IL-2-luciferase RLU, Jurkat + CHO/OKT3/PD-L1 aAPC, 5.6 nM is 2790 RLU; the IL-2-luciferase RLU, Jurkat + CHO/OKT3/PD-L1 aAPC, 16.7 nM turned out to be 3670 RLU. In experiment [1], the IL-2-luciferase RLU, Jurkat + CHO/OKT3/PD-L1 aAPC, 50 nM came to 3780 RLU; the IL-2-luciferase RLU, Jurkat + CHO/OKT3 aAPC (no PD-L1), 5.6 nM was 637 RLU; the IL-2-luciferase RLU, Jurkat + CHO/OKT3 aAPC (no PD-L1), 16.7 nM was 710 RLU; the IL-2-luciferase RLU, Jurkat + CHO/OKT3 aAPC (no PD-L1), 50 nM was found to be 894 RLU. In experiment [2], the IL-2 release, primary T cells; K562/OKT3/PD-L1; 1 nM was found to be 244; the IL-2 release, primary T cells; K562/OKT3/PD-L1; 10 nM was 3430; the IL-2 release, primary T cells; K562/OKT3/PD-L1; 100 nM was 8310.

With “variant CD80 IgV-Fc (inert) E23G/A26S/E35D/T62N/A71D/L72V/L85M (Fc fusion)”, in experiment [1], the IL-2-luciferase RLU, Jurkat + CHO/OKT3/PD-L1 aAPC, 0.6 nM amounted to 524 RLU; the IL-2-luciferase RLU, Jurkat + CHO/OKT3/PD-L1 aAPC, 5.6 nM worked out at 659 RLU; the IL-2-luciferase RLU, Jurkat + CHO/OKT3/PD-L1 aAPC, 16.7 nM worked out at 689 RLU; the IL-2-luciferase RLU, Jurkat + CHO/OKT3/PD-L1 aAPC, 50 nM came out at 695 RLU. In experiment [1], the IL-2-luciferase RLU, Jurkat + CHO/OKT3 aAPC (no PD-L1), 5.6 nM was determined as 566 RLU; the IL-2-luciferase RLU, Jurkat + CHO/OKT3 aAPC (no PD-L1), 16.7 nM stood at 560 RLU; the IL-2-luciferase RLU, Jurkat + CHO/OKT3 aAPC (no PD-L1), 50 nM worked out at 606 RLU. Further, the IL-2 release, primary T cells; K562/OKT3/PD-L1; 100 nM in experiment [2] stood at 102.
